{"source": "paper PMC4032258", "about": "“Transmembrane Recognition of the Semaphorin Co-Receptors Neuropilin 1 and Plexin A1: Coarse-Grained Simulations” (PLoS ONE, 2014)", "proteins": {"B1": {"name": "Neuropilin 1 transmembrane domain (NRP1 TM), BACTH fusion (domain or fragment, human)", "chain": "ILITIIAMSALGVLLGAVCGVVLYRKR", "notes": "not part of NRP1; Modified pKTN25 and pUT18 plasmids; also called NRP1 TM domain; source: bacterial two-hybrid fusion (BACTH), E. coli BTH101 (cya-), cotransformed plasmids; not shown: T25 or T18 fragment of Bordetella pertussis adenylate cyclase CyaA, C-terminal, kept"}}, "biological_target": "the molecule itself", "assay": "two-hybrid; bacterial adenylate cyclase two-hybrid (BACTH) in E. coli BTH101 (cya-); TM sequences fused to T18 and T25 fragments of CyaA behind an OmpA signal sequence; read out on MacConkey indicator plates and by beta-galactosidase activity, normalised to GpA-GpA as 100%", "data": [{"protein": "B1", "values": [{"measurement": "interaction propensity (beta-galactosidase activity) relative to GpA-GpA", "value": "~50", "unit": "%"}]}]}
